The text below walks through data of PMC6566259, “Engineering of Nanobodies Recognizing the Human Chemokine Receptor CCR7” (International Journal of Molecular Sciences, 2019).

Holding throughout (conditions): partners not purified
One assay addresses T1, CCR7-SmBiT (Homo sapiens, UniProt P32248).
T1 construct: Chemokine receptor CCR7, human; amplified from pcDNA3-CCR7-HA and ligated to SmBiT amplified from pAAVS1P-iCLHN; A Gly/Ser linker between CCR7 and SmBiT is surmised from the primer; also called pcDNA3-CCR7-SmBiT; pBiT2.1-C-CCR7-SmBiT; source: HEK293, transiently transfected, in cells; not shown: SmBiT (Small BiT of NanoLuc), C-terminal, kept
Briefly: split reporter (BiFC, NanoBiT); split-luciferase complementation; HEK293 cells co-expressing GPCR-SmBiT and Nb-LgBiT (plasmid ratio 1:1), coelenterazine H 5 µM, luminescence before and after 10 µM isoproterenol, 1.5 µg/mL CCL19 or PBS.

In the next assay the target is T2, CCR7-YFP2 (Homo sapiens, UniProt P32248).
T2 construct: Chemokine receptor CCR7, human; amplified by PCR and subcloned into the split-YFP2 BiFC vector; also called CC chemokine receptor 7; CCR7-Y2; source: HEK293, transiently or stably transfected, in cells; not shown: split-YFP2, C-terminal, kept
T2 sequence (P32248 25-378): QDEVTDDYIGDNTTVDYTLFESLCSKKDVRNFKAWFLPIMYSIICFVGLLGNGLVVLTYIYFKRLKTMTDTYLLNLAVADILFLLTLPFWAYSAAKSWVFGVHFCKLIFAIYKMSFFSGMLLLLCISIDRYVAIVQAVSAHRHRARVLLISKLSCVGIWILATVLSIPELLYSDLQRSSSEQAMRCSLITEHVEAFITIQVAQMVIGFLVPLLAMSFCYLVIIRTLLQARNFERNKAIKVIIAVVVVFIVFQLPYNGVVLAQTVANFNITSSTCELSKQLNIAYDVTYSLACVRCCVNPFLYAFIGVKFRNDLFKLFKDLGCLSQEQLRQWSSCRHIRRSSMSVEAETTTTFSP
Briefly: split reporter (BiFC, NanoBiT); BiFC read by confocal microscopy; HEK293 cells stably expressing CCR7-YFP2, transiently transfected with Nb-YFP1, unstimulated or stimulated with 0.5 µg/mL CCL19, fixed.

In the next assay the target is T3, β2AR-YFP2 (human, UniProt P07550).
T3 construct: also called β2-adrenergic receptor; ADRB2; source: HEK293, transiently transfected, in cells; not shown: split-YFP2, C-terminal, kept
As to the kind of experiment: split reporter (BiFC, NanoBiT); BiFC read by flow cytometry; HEK293 cells co-expressing Nb-YFP1 and GPCR-YFP2, stimulated 20 min with 10 µM isoproterenol or 0.5 µg/mL CCL19, fixed in 4% formaldehyde.

Assay [1] addresses T4, β2AR-SmBiT (UniProt P07550).
T4 construct: β2-adrenergic receptor; also called pBiT2.1-C-β2AR-SmBiT; source: HEK293, transiently transfected, in cells; not shown: SmBiT (Small BiT of NanoLuc), C-terminal, kept
Briefly: split reporter (BiFC, NanoBiT); G-protein competition assay based on split-luciferase complementation; HEK293 cells co-expressing GPCR-SmBiT, LgBiT-mini-Gαi and Nb-YFP1 or pcDNA3 (1:1:1), stimulated with 10 µM isoproterenol or 1.5 µg/mL CCL19; fold increase in luminescence over baseline.

Assay [2] concerns the target T4, β2AR-SmBiT. As to the kind of experiment: split reporter (BiFC, NanoBiT); split-luciferase complementation; HEK293 cells co-expressing GPCR-SmBiT and Nb-LgBiT (plasmid ratio 1:1), coelenterazine H 5 µM, luminescence before and after 10 µM isoproterenol, 1.5 µg/mL CCL19 or PBS.

T1 sequence (P32248 25-378): as above

B1: Nb1-LgBiT (VHH)
VHH: QVQLQESGGGLVQAGGSLRLSCAASGLRFSRNTMGWYRQAPGKQRELVAAIHSGGSTNYANSVKGRFTISRDNAANTVYLQMNSLKPEDTAVYYCNVKDWNNQPNGDDYWGQGTQVTVSS
notes: As the VHH of m3 (Nb1): Nb80 with randomised segments in CDR1 and CDR3; source: HEK293, transiently transfected, in cells; not shown: LgBiT (Large BiT of NanoLuc), C-terminal, kept
Take B1: the binding result with CCR7-SmBiT is on record as “binds”.

B2: Nb1-YFP1 (VHH)
VHH: QVQLQESGGGLVQAGGSLRLSCAASGLRFSRNTMGWYRQAPGKQRELVAAIHSGGSTNYANSVKGRFTISRDNAANTVYLQMNSLKPEDTAVYYCNVKDWNNQPNGDDYWGQGTQVTVSS
notes: As the VHH of m1 (Nb80) with randomised segments in CDR1 and CDR3; Clone from the synthetically randomised Nb80 library; also called Nb1-Y1; source: HEK293, transiently transfected, in cells; not shown: split-YFP1 (N-terminal part of split-YFP), C-terminal, kept
As to B2, in the assay with CCR7-YFP2, the binding result is on record as “binds”.

B3: Nb38-LgBiT (VHH)
VHH: QVQLQESGGGLVQAGGSLRLSCAASGHTMFSNTMGWYRQAPGKQRELVAAIHSGGSTNYANSVKGRFTISRDNAANTVYLQMNSLKPEDTAVYYCNVKDFLGLIHFRDYWGQGTQVTVSS
notes: As the VHH of m7 (Nb38): Nb80 with randomised segments in CDR1 and CDR3; source: HEK293, transiently transfected, in cells; not shown: LgBiT (Large BiT of NanoLuc), C-terminal, kept
For the molecule B3, the binding result with CCR7-SmBiT is “binds”.

B4: Nb38-YFP1 (VHH)
VHH: QVQLQESGGGLVQAGGSLRLSCAASGHTMFSNTMGWYRQAPGKQRELVAAIHSGGSTNYANSVKGRFTISRDNAANTVYLQMNSLKPEDTAVYYCNVKDFLGLIHFRDYWGQGTQVTVSS
notes: As the VHH of m1 (Nb80) with randomised segments in CDR1 and CDR3; Clone from the synthetically randomised Nb80 library; also called Nb38-Y1; source: HEK293, transiently transfected, in cells; not shown: split-YFP1 (N-terminal part of split-YFP), C-terminal, kept
Take B4: the binding result with CCR7-YFP2 was “binds”.

B5: Nb5-LgBiT (VHH)
VHH: QVQLQESGGGLVQAGGSLRLSCAASGCVPGPNTMGWYRQAPGKQRELVAAIHSGGSTNYANSVKGRFTISRDNAANTVYLQMNSLKPEDTAVYYCNVKDETRTRHQNDYWGQGTQVTVSS
notes: As the VHH of m5 (Nb5): Nb80 with randomised segments in CDR1 and CDR3; source: HEK293, transiently transfected, in cells; not shown: LgBiT (Large BiT of NanoLuc), C-terminal, kept
Consider B5, for which, in the assay with CCR7-SmBiT, the binding result is reported as “binds”.

B6: Nb5-YFP1 (VHH)
VHH: QVQLQESGGGLVQAGGSLRLSCAASGCVPGPNTMGWYRQAPGKQRELVAAIHSGGSTNYANSVKGRFTISRDNAANTVYLQMNSLKPEDTAVYYCNVKDETRTRHQNDYWGQGTQVTVSS
notes: As the VHH of m1 (Nb80) with randomised segments in CDR1 and CDR3; Clone from the synthetically randomised Nb80 library; also called Nb5-Y1; source: HEK293, transiently transfected, in cells; not shown: split-YFP1 (N-terminal part of split-YFP), C-terminal, kept
On to B6, for which the binding result with CCR7-YFP2 is reported as “binds”.

B7: Nb80-YFP1 (VHH)
VHH: QVQLQESGGGLVQAGGSLRLSCAASGSIFSINTMGWYRQAPGKQRELVAAIHSGGSTNYANSVKGRFTISRDNAANTVYLQMNSLKPEDTAVYYCNVKDYGAVLYEYDYWGQGTQVTVSS
notes: Nanobody Nb80 against the β2-adrenergic receptor; The reverse PCR primer appears to encode a His6 stretch at the C-terminus of Nb80, ahead of YFP1 (surmised from the primer); No PDB id is printed; also called Nb80-Y1; pcDNA3-Nb80-YFP1; source: HEK293, transiently transfected, in cells; not shown: split-YFP1 (N-terminal part of split-YFP), C-terminal, kept
Consider B7, for which the binding result with β2AR-YFP2 and with β2AR-SmBiT [1] was “binds” each time.

B8: Nb80-LgBiT (VHH)
VHH: QVQLQESGGGLVQAGGSLRLSCAASGSIFSINTMGWYRQAPGKQRELVAAIHSGGSTNYANSVKGRFTISRDNAANTVYLQMNSLKPEDTAVYYCNVKDYGAVLYEYDYWGQGTQVTVSS
notes: As the VHH of m1 (Nb80); Nb80 was moved from pcDNA3-Nb80-YFP1 into pcDNA3-CCR7-LgBiT by HindIII and ClaI, followed by site-directed mutagenesis at the junction; A Gly/Ser linker before LgBiT is surmised from the primers; also called pcDNA3-Nb80-LgBiT; source: HEK293, transiently transfected, in cells; not shown: LgBiT (Large BiT of NanoLuc), C-terminal, kept
Consider B8, for which the binding result in the assay with β2AR-SmBiT [2] is given as “binds”.
